The series is described as follows: yeast display, Sf9 membrane polyspecificity reagent, FACS + sequencing; frameworks hold sequencing errors. Put shortly:
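Synthetic nanobody libraries on Saccharomyces cerevisiae BJ5465 were galactose-induced for 36–48 hours, stained 1 hour at 4 °C with 10% biotinylated, detergent-solubilized Sf9 membrane reagent and enriched on streptavidin microbeads. FACS then separated cells into low and high (top ~1%) gates by anti-HA (expression) and streptavidin (reagent binding) fluorescence. Genes were colony-PCR amplified, MiSeq 2 × 250 sequenced and CDR-length filtered. A clone's polyreactivity label is that of its gate of origin.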
On to “QVQLVESGVGLVQAGGSLSLSCAASGSTFYKYTMGWYRQAPGKESELVAAISGSGTTTYYADSVKGRFTISRDYAKNTVFLQINSLKPEDTAVYYCAAETYSPDREYGYWGLGTQVTVSS”, for which the “polyreactivity (PSR sort gate)” value was “high polyreactivity”.

Regarding “QVQLVESGVGLVQAGGSLSLSSAASGSIFGYYAMGWYRQAPGKERELVAAITSDGDTYYADSVKGRFTISRDNAKNTVYLQINSLKPEDTAVYYCNATYGGPYYIQNDYWGQGTQVTVSS”, the “polyreactivity (PSR sort gate)” value is reported as “low polyreactivity”.

With “QVQLVESGVGLVQAVGSHRLSCAASGFTIINNDMGWYRQAPGKEREFVAAISDSDGTTYYADSVKGRFSISRDNAKNTVYLQMNSLKPEDTAVYYCAADVVPTWEDEYWGQGTQVTVSS”, the “polyreactivity (PSR sort gate)” value is reported as “low polyreactivity”.

Regarding “QVQLVESGVGLVQAVGSLRISCAACGSIFGRYGMGWYRQAPGKERELVAAITSGTRTNYADSVKGRFTISRDNAKNTVYLQMNSLKPEDTAVYYCNALRLRGIYEYGYWGLGTQVTVSS”, the “polyreactivity (PSR sort gate)” value is listed as “low polyreactivity”.

Consider “QVQLVESGVGLVQAVGSLRLSCAASGIILHYYAMGWYRQAPGKERELVAAISARGGRTYYADSVKGRFTISRDNAKNTVYLQMNSLKPEDTAVYYCAKDTRRSGVSTYTGNMDYWGHGTQVTVSS”, for which the “polyreactivity (PSR sort gate)” value is “high polyreactivity”.

Take “QVQLVESGVGLVQAVGSLRLSCAASGSILITNAMGWYRQAPGKERELVAAISSGGSTYYADSVKGRFTISRDNAKNTVYLQMNSLKPEDTAVYYFAADQLKVGREYVEYDYWGQGTQVTVSS”: the “polyreactivity (PSR sort gate)” value is “low polyreactivity”.

With “QVQLVESGVGSVQAGGSLRLSCAASGATFPGNAMGWYRQAPGKERELVAAIRDRGTSTYDADSVKGRFTISRDNAKNTVYLQMNSLKPEDTAVYYCAAASRVAKGRWRLYDYWGQGTQVTLSS”, the “polyreactivity (PSR sort gate)” value is “high polyreactivity”.

As to “QVQLVESGVRVVQAGGSLRLRCAASGFTFRDYTMGWYRQAPGKERELVAAISRSGGSTYYADSVKGRFTISRDNAKNTVDLQMNSLKPEDTAVYYCAALWHAVSYADYDYWGQGTQVTVSS”, the “polyreactivity (PSR sort gate)” value was “high polyreactivity”.

Regarding “QVQLVESRAGLVQAGGSLRLSCAASGRTSWVYAMGWYRHAPGKDRELVAAIRWRGSSTYYADSGKGRFTISRDNAKNTVYLQMNSLKPEVTAVYYCAAAFSFAQSFDSWGQGTQVTVSS”, the “polyreactivity (PSR sort gate)” value is “high polyreactivity”.

With “QVQLVESRGGLLQAGGSLRLSCAASGIIFGHYDMGWYRQAPGKEWELVAAITFTGDSTYYADSVKGRFTISRDNAKHTVYLQMNSLKPEDTAVYYCAAETPVPWGSWGYDYWGQGTQVTVSS”, the “polyreactivity (PSR sort gate)” value was “low polyreactivity”.

On to “QVQLVESRGGLLQAGGTLRLSCAASGLTITTYTMGWSIQAPGTERELVASINYRGGRTYYADSVKGRFSISRDNAKNTVYLQMNSLKPEDTAVYYCAKSRYYRRRQYYHYDYCGQGTQVTVSS”, for which the “polyreactivity (PSR sort gate)” value was “high polyreactivity”.

For “QVQLVESRGGLVQAGGSLGLSCAASGPTFFYNAMGWYRQAPGKERELVAAISSGGGSTYYADSVKGRFTISRDNAKNTVYLQMNSLKPEDTAVYYCAGASYRQPGYGYWGQGTLVTVSS”, the “polyreactivity (PSR sort gate)” value is recorded as “high polyreactivity”.

In the case of “QVQLVESRGGLVQAGGSLRISCAASGSTFVAYAMGWYRQAPAKERELVAAISYSGGSTYYADSVKGRFTISRDYAKNTVSLQMNCLKPEDTAVYYCAAEWSRHYYYGPRYDYWGQGTQVSVSS”, the “polyreactivity (PSR sort gate)” value was “low polyreactivity”.

On to “QVQLVESRGGLVQAGGSLRLSCAASGATFNHYAMGWYRQAPGKERELVAAITKSGGSTYADSVKGRFTISRDNAKKTVYLQMNSLKPEDTAVYYCAAGRRKYGTKGRGDYWGQGSQVTVSS”, for which the “polyreactivity (PSR sort gate)” value is given as “low polyreactivity”.

With “QVQLVESRGGLVQAGGSLRLSCAASGFIFDKYAMGWYRQAPGKERELVATITSGGSTYYADSVKGRFTISRDNAKNTVYLQMNSLKPEDTAVYYCAALDYGYRWYRYYYWGQGTQVTVSS”, the “polyreactivity (PSR sort gate)” value is given as “high polyreactivity”.

For “QVQLVESRGGLVQAGGSLRLSCAASGFIFSSYAMGWYRQAHGKERELVAAITSGGSTNYADSVKGRFTISRDNAKNTVYLQMNSLKPEDTAVYYCATVPGGSWFFHWWSTGGDDEYWGQGTQVTVSS”, the “polyreactivity (PSR sort gate)” value was “low polyreactivity”.

Turning to “QVQLVESRGGLVQAGGSLRLSCAASGFIFWYYAMGWYRQAPGKERALVAAINWSGTSTNYADSVKGRFTISRDNAKNTVYLQMNSLIPEDTAVYYCNTRIWSSSYDVTYDYWGQGTQVTVSS”, the “polyreactivity (PSR sort gate)” value is on record as “low polyreactivity”.

Regarding “QVQLVESRGGLVQAGGSLRLSCAASGFTFYLNALGWYRPAPGKERELVAAISYSDGSTYYADSVKGRFTISRDNAKNTVYLQMNSLKPEDTAVYYCAADTTDPGGAYQLMDYCGQGTQVTVSS”, the “polyreactivity (PSR sort gate)” value is “high polyreactivity”.

For the sequence “QVQLVESRGGLVQAGGSLRLSCAASGIIFDTNAMGWYRQAPGKERELVATITQRGGTTYYADSVKGRFTISRDNAKNTVYLQMNSLKPEDTAVYYCNAGPVRLPYDSWGQGTQVTVSS”, the “polyreactivity (PSR sort gate)” value was “low polyreactivity”.

As to “QVQLVESRGGLVQAGGSLRLSCAASGITLYGYAMGWYRQAPGKERELVAAISRSGSSTYYADSVKGRFTISRDNAKNTVYVQMNSLKPEDTAVYYCNSEKYYLAYLLPFNYWGQGTQVTVSS”, the “polyreactivity (PSR sort gate)” value was “high polyreactivity”.

With “QVQLVESRGGLVQAGGSLRLSCAASGLTFRYYAMGWYRQAPGKERELVAAITASVGSTYYADSVKGRFTISRDNAKNTVYLQMNSLKPEDTAVYYCAADSEQDNLRYYRWVWYYYWGQGTQVTVSS”, the “polyreactivity (PSR sort gate)” value was “low polyreactivity”.

Take “QVQLVESRGGLVQAGGSLRLSCAASGMTFSDYPMGLYRQAPGKEREFVSAITSGGRTNYADSVKGRFTISRDNAKNTVYLQMNSLKPEDTAVYYCAAVYTYVYYYHYPYYYWGQGTQVTVSS”: the “polyreactivity (PSR sort gate)” value was “low polyreactivity”.

“QVQLVESRGGLVQAGGSLRLSCAASGRIFGSYAMGWYRQAPGKERVLVAAISYSGGSTYYADSVKGRFTISRDNAKNTVYLQMNSLKPEDTAVYYSNVDRYYGYFSVRGGYWGQGTQVTVSS”: the “polyreactivity (PSR sort gate)” value is “low polyreactivity”.

Consider “QVQLVESRGGLVQAGGSLRLSCAASGRIFGYYAMGWYRQAPGKERELVATIRGGGSTNYADSVKGRFTISRDNAKNTVYLQMNSLKPEDTAVYYCAKPGAKWRGFDYWGQGTQVTVSS”, for which the “polyreactivity (PSR sort gate)” value is recorded as “low polyreactivity”.

For the sequence “QVQLVESRGGLVQAGGSLRLSCAASGRIFSNNAMGCYRQAPGKERELVAAITASSGSTYYADSVKGRFTISRDNAKNTVYLQMNSLKPEDTAVYYCAATLRWGFRWYFGFDYWGQGTQLTVSS”, the “polyreactivity (PSR sort gate)” value is given as “high polyreactivity”.

With “QVQLVESRGGLVQAGGSLRLSCAASGRILPYHVMGWYSQAPGKERELVAAISSGGTTDYADSVKGRFTISRDNANNTVYLQMNSLKPEDTAVYYCAATYDYWTWGYDYWGQGTQVTVSS”, the “polyreactivity (PSR sort gate)” value is listed as “low polyreactivity”.

In the case of “QVQLVESRGGLVQAGGSLRLSCAASGRTFHRNAMGWYRQPPGKERELVAAITGDGRTNYADSVKGRFTISRDNAKNTVYLQMNSLKPVDTAVYYCAARFSYRSYDYWGQGTQVTVSS”, the “polyreactivity (PSR sort gate)” value is listed as “low polyreactivity”.

As to “QVQLVESRGGLVQAGGSLRLSCAASGRTFSGNAMGWYRQAPGKERELVAAITSVGTTNYADSVKGRFTISRDNANNTVYLQMNSLKPEHTAVYYCAADPPSDYYKYDYWGHGTQVTVSS”, the “polyreactivity (PSR sort gate)” value is reported as “low polyreactivity”.

Regarding “QVQLVESRGGLVQAGGSLRLSCAASGRTIYPYTMGCYRQAPGKERELVAAISSSGTRTYYADSVKGRFTISRDIAKNTVYLQMNSLKPEDTAVYDCATRRPGSFGYWGQGTQVTVSS”, the “polyreactivity (PSR sort gate)” value is given as “high polyreactivity”.

Turning to “QVQLVESRGGLVQAGGSLRLSCAASGSIFDGYAMGWYRQAPGKERELVAAITWSGGRTYYADSVKGRFTISRDNAKNTVYLQMNSLKPEDTAVYYCNAVTGSWRYDYWGQGTQVTVSS”, the “polyreactivity (PSR sort gate)” value was “high polyreactivity”.

Turning to “QVQLVESRGGLVQAGGSLRLSCAASGSIFLYAMGWYRQEPGKQRELVAAISGGGRTNYADSVKGRFTISRDNAKNTVYLQMNSMKPEDTAVYYCAADPVYWYSPMDYWGQGTQVTVSS”, the “polyreactivity (PSR sort gate)” value was “low polyreactivity”.

For “QVQLVESRGGLVQAGGSLRLSCAASGSIFPYYAMGWYRQAPGKERELVAAISLSGVSTTYADSVKGRFTISRDNAKNTVYLQMNSLKPVDTAVYYCAAKSFWSRYVGGYYWGQGTQVTVSS”, the “polyreactivity (PSR sort gate)” value was “high polyreactivity”.

As for “QVQLVESRGGLVQAGGSLRLSCAASGSIFRSYAMGWYRQAPGKERELVAAIRGSDGNTYYADSVKGRFTISRDNPKNTVYLQMNSLKPEDTAVYYCAADGCLVDDSATRLYYWGQGTQVTVSS”, the “polyreactivity (PSR sort gate)” value was “high polyreactivity”.

On to “QVQLVESRGGLVQAGGSLRLSCAASGSIFSFYAMGWYRQAPGKERELVATITSGGSTYYADSVKGRFSISRDNAKNTVYLQMNSLKPEDTAVYYCAARGNFGANPGRKHGFDYWGQGTQVTVSS”, for which the “polyreactivity (PSR sort gate)” value is recorded as “high polyreactivity”.

Take “QVQLVESRGGLVQAGGSLRLSCAASGSIFYRYARGWYRQAPGKERELVAAITYSGGRTYYADSVKGRFTISRDNAKNTVYLQMNSLKPEDTAVYYCAAEKQSYGSPQGYDYWGQGTQVTVSS”: the “polyreactivity (PSR sort gate)” value is given as “low polyreactivity”.

With “QVQLVESRGGLVQAGGSLRLSCAASGSTFFYNAMGWYRQAPGKEREFVAAITNGVITNYADSVKGRFTISRDNAKNTVYLQMNSLKPEDTAVYYCAALRWSPRSRYQYNYWGQGTQVTVSS”, the “polyreactivity (PSR sort gate)” value is on record as “high polyreactivity”.

On to “QVQLVESRGGLVQAGGSLRLSCAASGSTFGPYTMGWYRQAPGKERELDAAISWNGGRTSYADSVKGRFTLSRDNAKNTVYLQKNSLKPEDTAGYYCAAGYFVGIYKRFYWGQGTQVTVSS”, for which the “polyreactivity (PSR sort gate)” value was “high polyreactivity”.

Take “QVQLVESRGGLVQAGGSLRLSCAASGSTFPGYAMGCYRQAPGKERELVAAISRSGGSTSYADSVKGRFTISRDKAQNTVYLQLHSLKPEDTEVYYCAAQVQGTSRAKQRGGIGELDYWGQGTQVTVSS”: the “polyreactivity (PSR sort gate)” value was “low polyreactivity”.

Take “QVQLVESRGGLVQAGGSLRLSCAASGSTFSPYVMGWYREAPGKERELFAAIRGRGGNTYYADSVKGRFTISRDNAKNTVYLQMNSLKPEDSAVYYCAAQSFAQYGWRYGDWGQVTQVTVSS”: the “polyreactivity (PSR sort gate)” value was “high polyreactivity”.

With “QVQLVESRGGLVQAGGSLRLSCAASGYIFGDYAKGWYRQAPGKERELVAAITQTGGNTYYADSVKGRFTISRDNAKKTVYLQMNSLKPEDTAVYYCAAPALGNYFYGYDYWGQGTQVTVSS”, the “polyreactivity (PSR sort gate)” value is “low polyreactivity”.

Source of the values: the nanobody polyreactivity screen of Harvey et al. (2022).
